Assay results published in US20190023782A1 (SHANGHAI JUNSHI BIOSCIENCES, published 2019).
Numbering of substitutions follows the chain as printed. Blank lines part the entries; values can stand above or below the binder they belong to.

Experiments:
[1] = biological target: T1, rh-PD-1 recombinant protein (human, UniProt Q15116 25-170, limits assumed); test: ELISA, rh-PD-1 coated at 1 ug/ml, antibody at 1 ug/ml
T1 construct: also called human-derived PD-1; PD-1 protein
Protocol: The next day, solution was removed from the wells and the wells were washed three times with a washing buffer (PBS+0.5% TWEEN). PBS solution containing 3% BSA was added to the wells to block for 20 minutes. After washing three times with the washing buffer, 100 ul of each antibody clone was added at 1 ug/ml and incubated at room temperature for 1 hour. After three washes with the washing buffer, HRP cross-linked goat anti mouse antibody (Jackson Immunoresearch) was diluted in the washing buffer 1: 0000, and added to the sample wells and incubated at room temperature for 1 hour. After three washes with the washing buffer, 50 ul TMB (tetramethyl benzidine) substrate solution was added to develop the color. The color reaction was terminated after the reaction was continued for 10 minutes at room temperature by adding 25 ul of 0.5M sulfuric acid solution to the reaction mixture. The absorbance was then measured at 450 nm.

[2] = biological target: T1, rh-PD-1 recombinant protein; test: ELISA on PD-1 protein
Macaca fascicularis PD-1 = biological target: T2, Macaca fascicularis PD-1 (Macaca fascicularis); test: ELISA, PD-1 coated at 1 ug/ml, goat anti-human HRP detection
T2 construct: also called cyno PD-1
T2 chain: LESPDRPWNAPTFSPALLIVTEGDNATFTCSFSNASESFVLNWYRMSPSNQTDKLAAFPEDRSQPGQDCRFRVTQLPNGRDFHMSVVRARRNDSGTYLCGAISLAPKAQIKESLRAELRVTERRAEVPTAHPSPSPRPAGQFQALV
Protocol: (§1) 1 ug /ml of human-derived PD-1, Macaca fascicularis PD-1, and mouse-derived PD-1 (Sinobiological) in the carbonate buffer solution (0.05 M PH9) were prepared and used to coat the wells of the 96-well flat-bottom plates at 4° C. overnight. The next day, solution was removed from the wells and the wells were washed three times with a washing buffer. PBS solution containing 3% BSA was added to block the wells for 20 minutes. […] The mixture was incubated at room temperature for 1 hour and then washed three times with a washing buffer. A HRP conjugated goat anti human antibody (Jackson Immunoresearch) was first diluted to 1: 10000 with the washing buffer and then added to the wells to incubate at room temperature for 1 hour. After washing three times with the washing buffer, 50 ul TMB substrate solution was added to the wells to develop the color. After 10 minutes at room temperature, the color development reaction was terminated with 25 ul 0.5M sulfuric acid solution and the absorbance was read at 450 nm.

[3] = biological target: T1, rh-PD-1 recombinant protein; test: as above
Protocol: as §1

T1 sequence (Q15116 25-170 limits assumed): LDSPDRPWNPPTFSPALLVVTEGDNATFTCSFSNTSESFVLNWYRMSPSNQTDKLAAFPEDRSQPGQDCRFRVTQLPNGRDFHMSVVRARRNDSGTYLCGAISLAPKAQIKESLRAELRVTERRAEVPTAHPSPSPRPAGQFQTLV

B2: H1L1 (antibody, V domains shown)
VH: QGQLQQSGAELVRPGASVTLTCKASGYTFTDYEMHWVKQTPIHGLEWIGVIESETGGTAYNQKFKGKAKLTADKSSSTAYMELRSLTSEDSAVYYCTREGITTVATTYYWYFDVWGTGTTVTVSS
VL: DVLMTQTPLSLPVSLGDQASISCRSSQSIVHSNGNTYLEWYLQKPGQSPELLIYKVYNRFSGVPDRFSGSGSGTDFTLKISRVEAEDLGVYYCFQGSHVPFTFGSGTKLEIK
notes: also called original antibody 1 (heavy chain 1, light chain 1)
EC50 [2]: 0.338 nM

B4: H1L10 (antibody, V domains shown)
VH: B2 VH
VL: B2 VL with E50K, Y57S, K79R, A85P, F101L
notes: also called recombinant antibody H1L10 (heavy chain 1, light chain 10)
EC50 [2]: 0.27 nM

B6: H10L1 (antibody, V domains shown)
VH: QVQLQQSGAELVRPGASVTLSCKASGYTFTDYEMHWVKQTPVHGLEWIGAIDPETGGAAYNQKFKGKAILTADKSSSTAYMELRSLTSEDSAVYYCTREGITTSVVTYYWYFDVWGTGTTVTVSS
VL: B2 VL
notes: also called recombinant antibody H10L1 (heavy chain 10, light chain 1)
EC50 [2]: 0.528 nM

More lines, now with the values ahead:

binding result [1]: binds
B1: Clone 11 (antibody, V domains shown)
VH: QVTLKESGPGILQPSQTLSLTCSFSGFSLSTFGMGVGWIRQPSGKGLEWLAHIWWDDDKYYNPALKSRLTISKNTSKNQVFLKIANVDTEDTATYYCARIEERFRWYFDVWGTGTTVTVSS
VL: RAGWTQESALTTSPGETVTLTCRSSTGAITTSNYANWVQEKPDHLFTGLIGGTNNRAPGVPARFSGSLIGDKAALTITGAQTEDEAIYFCALWYSNHWVFGGGTKLTVL
notes: Mouse hybridoma antibody; also called antibody candidate Clone 11

EC50 [2]: 0.426 nM
B3: H10L10 (antibody, V domains shown)
VH: B6 VH
VL: B2 VL with E50K, Y57S, K79R, A85P, F101L
notes: also called original antibody 10 (heavy chain 10, light chain 10)

binding result (Macaca fascicularis PD-1): binds
binding result [3]: binds
B5: humanized antibody Clone 41 (antibody, V domains shown)
VH: QGQLVQSGAEVKKPGASVKVSCKASGYTFTDYEMHWVRQAPGQGLEWMGVIESETGGTAYNQKFQGRVTLTADKSSSTAYMELSSLRSEDTAVYYCTREGITTVATTYYWYFDVWGQGTLVTVSS
VL: B2 VL with L3V, T7S, S14T, D17Q, Q18P, E50Q, Y57S, L88V, F101L, S105Q
notes: Humanized antibody; also called hu41
